The test system of the test is WT or Plxna4−/− peritoneal macrophages. Description: TNF-α and IL-6 production (RT-PCR, ELISA) in peritoneal macrophages stimulated with Sema3A-Fc or Sema6A-Fc in the absence or presence of LPS. Format: cell-based, mouse. To be noted: semaphorin alone, absence of LPS; macrophages. As to the method: Messenger RNA (FIG. 7A) or protein (FIG. 7B) levels of TNF-α and IL-6 were measured by RT-PCR and ELISA, respectively. The IgG Fc fragment (100 μg/ml) was used as a negative control. WT and Plxna4^−/− mice (n=7˜9 per group) were pretreated with either Sema3A-Fc or IgG Fc control proteins at a dosage of 25 μg per kg body weight 1 h prior to CLP procedure (FIG. 7C). Survival rate was monitored for 5 days. τP<0.05 compared with WT mice pretreated with Sema3A-Fc. WT mice (n=4 per group) were pretreated with either Sema3A-Fc or IgG Fc control proteins, followed by CLP surgery (FIG. 7D). Inflammatory cytokines in peritoneal lavage collected 4 h after CLP were determined by ELISA. * P<0.05 compared to peritoneal lavage from WT mice pretreated with Sema3A-Fc (FIG. 7E). […] Inflammatory cytokines in peritoneal lavage collected 4 h after CLP were determined by ELISA. *P<0.05 compared with peritoneal lavage from WT mice pretreated with Sema3A-Fc (FIG. 7G).
Total peritoneal cells were harvested from the peritoneal cavities of naïve WT or Plxna4^−/− mice with two 10 ml cold sterile PBS wash. […] The remaining cells were thoroughly washed with PBS and counted in a hemocytometer. Cytospins were prepared and stained with Diff-Quik solutions, and the number of peritoneal macrophages was determined. […]
(In general: In an ELISA, binding on a coated surface is turned into a signal by an enzyme label.)

The text below walks through data of patent publication US8871205B2, “Methods and compositions for the treatment of immune disorders” (The University of North Carolina at Chapel Hill, priority 2009, dated 2014).

B1: Sema6A: human Sema6A-Fc (1146-S6, R&D); chimeric protein of human IgG1 Fc fragment fused to Sema6A (protein)
chain: GFPEDSEPISISHGNYTKQYPVFVGHKPGRNTTQRHRLDIQMIMIMNGTLYIAARDHIYTVDIDTSHTEEIYCSKKLTWKSRQADVDTCRMKGKHKDECHNFIKVLLKKNDDALFVCGTNAFNPSCRNYKMDTLEPFGDEFSGMARCPYDAKHANVALFADGKLYSATVTDFLAIDAVIYRSLGESPTLRTVKHDSKWLKEPYFVQAVDYGDYIYFFFREIAVEYNTMGKVVFPRVAQVCKNDMGGSQRVLEKQWTSFLKARLNCSVPGDSHFYFNILQAVTDVIRINGRDVVLATFSTPYNSIPGSAVCAYDMLDIASVFTGRFKEQKSPDSTWTPVPDERVPKPRPGCCAGSSSLERYATSNEFPDDTLNFIKTHPLMDEAVPSIFNRPWFLRTMVRYRLTKIAVDTAAGPYQNHTVVFLGSEKGIILKFLARIGNSGFLNDSLFLEEMSVYNSEKCSYDGVEDKRIMGMQLDRASSSLYVAFSTCVIKVPLGRCERHGKCKKTCIASRDPYCGWIKEGGACSHLSPNSRLTFEQDIERGNTDGLGDCHNSFVALNGHSSSLLPSTTTSDSTAQEGYESRGGMLDWKHLLDSPDSTDPLGAVSSHNHQDKKGVIRESYLKGHDQLVPVT
modifications: left off: a dimerising Fc or GST
notes: human Sema6A-Fc (1146-S6, R&D); chimeric protein of human IgG1 Fc fragment fused to Sema6A
As for B1, the “TNF-α and IL-6 production” value is reported as “Neither Sema3A nor Sema6A alone induced”.
